Measured values as given in the supplement of paper PMC6379048.

Columns and labels:
XAB2 = biological target: T1, XAB2 (UniProt Q9HCS7); experiment: Kd (EC50 corrected by depletion factor)
T1 sequence: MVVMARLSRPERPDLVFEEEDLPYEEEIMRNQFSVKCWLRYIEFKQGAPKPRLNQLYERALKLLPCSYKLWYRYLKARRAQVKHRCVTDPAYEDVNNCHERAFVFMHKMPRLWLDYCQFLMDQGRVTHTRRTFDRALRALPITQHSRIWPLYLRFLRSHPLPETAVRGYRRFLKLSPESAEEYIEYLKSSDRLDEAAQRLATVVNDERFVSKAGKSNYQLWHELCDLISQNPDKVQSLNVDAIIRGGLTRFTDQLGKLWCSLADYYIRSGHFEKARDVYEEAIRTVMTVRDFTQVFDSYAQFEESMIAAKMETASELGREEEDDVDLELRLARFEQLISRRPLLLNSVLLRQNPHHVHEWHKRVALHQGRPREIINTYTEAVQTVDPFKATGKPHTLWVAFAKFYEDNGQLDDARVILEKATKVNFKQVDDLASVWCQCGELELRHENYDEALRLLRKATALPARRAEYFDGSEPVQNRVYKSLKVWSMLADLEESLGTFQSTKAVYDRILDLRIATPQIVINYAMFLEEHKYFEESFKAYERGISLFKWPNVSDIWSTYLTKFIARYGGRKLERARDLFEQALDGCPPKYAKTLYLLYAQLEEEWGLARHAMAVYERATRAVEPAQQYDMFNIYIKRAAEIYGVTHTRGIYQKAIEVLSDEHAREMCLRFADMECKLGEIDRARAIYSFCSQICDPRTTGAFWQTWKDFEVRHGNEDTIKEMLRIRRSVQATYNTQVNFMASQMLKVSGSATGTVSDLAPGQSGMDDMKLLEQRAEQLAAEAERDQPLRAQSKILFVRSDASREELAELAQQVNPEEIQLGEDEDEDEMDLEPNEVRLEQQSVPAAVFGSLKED
In short: (§1)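 To obtain EC50, data were fitted with a four-parameter log-logistic model; Kd was then EC50 multiplied by a protein-dependent depletion factor. Beforehand, free RNA oligos (0 nM to 30 μM) were pre-incubated with HEK293-FT lysate (2.5 mg protein/well) for 1 h at 4°C. The lysate then spent 30 min at 4°C with the same 5′-amino-C6 oligos coupled to NHS-Sepharose beads, and bound proteins were quantified by label-free LC-MS/MS, normalised to the control.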

AQR = biological target: T2, AQR (UniProt O60306); experiment: Kd (EC50 corrected by depletion factor)
T2 sequence: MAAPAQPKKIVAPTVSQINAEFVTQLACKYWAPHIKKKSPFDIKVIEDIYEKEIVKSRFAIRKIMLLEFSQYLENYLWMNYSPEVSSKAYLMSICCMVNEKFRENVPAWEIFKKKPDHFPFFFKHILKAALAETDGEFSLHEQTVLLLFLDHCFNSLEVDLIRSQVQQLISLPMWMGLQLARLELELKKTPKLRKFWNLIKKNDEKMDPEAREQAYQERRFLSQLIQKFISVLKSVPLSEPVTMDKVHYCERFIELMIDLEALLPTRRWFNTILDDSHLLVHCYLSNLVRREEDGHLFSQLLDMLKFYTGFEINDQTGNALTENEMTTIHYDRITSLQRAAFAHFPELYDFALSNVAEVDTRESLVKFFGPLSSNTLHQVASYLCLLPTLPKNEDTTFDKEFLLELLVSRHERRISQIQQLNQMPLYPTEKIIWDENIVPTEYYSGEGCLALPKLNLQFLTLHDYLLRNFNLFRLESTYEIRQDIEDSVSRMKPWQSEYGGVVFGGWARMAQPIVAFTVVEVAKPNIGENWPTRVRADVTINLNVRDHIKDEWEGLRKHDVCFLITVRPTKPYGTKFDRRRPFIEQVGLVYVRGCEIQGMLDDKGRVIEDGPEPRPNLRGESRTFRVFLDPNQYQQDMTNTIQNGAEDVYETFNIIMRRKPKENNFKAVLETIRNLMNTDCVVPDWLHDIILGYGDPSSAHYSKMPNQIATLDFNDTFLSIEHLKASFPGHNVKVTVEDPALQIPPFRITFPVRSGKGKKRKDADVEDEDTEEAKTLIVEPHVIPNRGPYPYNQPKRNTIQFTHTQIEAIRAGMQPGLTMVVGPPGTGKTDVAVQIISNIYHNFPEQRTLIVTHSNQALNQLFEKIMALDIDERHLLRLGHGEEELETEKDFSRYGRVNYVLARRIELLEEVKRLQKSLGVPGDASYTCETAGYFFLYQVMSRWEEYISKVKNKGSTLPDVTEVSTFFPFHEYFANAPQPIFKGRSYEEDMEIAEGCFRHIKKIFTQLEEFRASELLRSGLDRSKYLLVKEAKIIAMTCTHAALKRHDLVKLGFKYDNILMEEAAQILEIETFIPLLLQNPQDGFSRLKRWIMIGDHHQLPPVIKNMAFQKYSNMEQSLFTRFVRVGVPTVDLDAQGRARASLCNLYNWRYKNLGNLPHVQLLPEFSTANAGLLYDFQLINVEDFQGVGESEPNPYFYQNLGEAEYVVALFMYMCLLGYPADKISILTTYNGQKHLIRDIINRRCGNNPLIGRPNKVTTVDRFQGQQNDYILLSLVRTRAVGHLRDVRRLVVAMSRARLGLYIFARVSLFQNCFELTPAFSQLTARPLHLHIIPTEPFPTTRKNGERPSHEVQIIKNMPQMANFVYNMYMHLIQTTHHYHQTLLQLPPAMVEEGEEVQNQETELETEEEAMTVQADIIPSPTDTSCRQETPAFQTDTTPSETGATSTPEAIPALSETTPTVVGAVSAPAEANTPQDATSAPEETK
In short: as §1

Sequence	Kd (XAB2)	Kd (AQR)
AAUAAA	322 nM	213 nM
UAUUUAU	286 nM	320 nM
